For one experiment, the target named is T1, rat PAC1 receptor (rat, UniProt P32215 20-523).
T1 sequence (looked up): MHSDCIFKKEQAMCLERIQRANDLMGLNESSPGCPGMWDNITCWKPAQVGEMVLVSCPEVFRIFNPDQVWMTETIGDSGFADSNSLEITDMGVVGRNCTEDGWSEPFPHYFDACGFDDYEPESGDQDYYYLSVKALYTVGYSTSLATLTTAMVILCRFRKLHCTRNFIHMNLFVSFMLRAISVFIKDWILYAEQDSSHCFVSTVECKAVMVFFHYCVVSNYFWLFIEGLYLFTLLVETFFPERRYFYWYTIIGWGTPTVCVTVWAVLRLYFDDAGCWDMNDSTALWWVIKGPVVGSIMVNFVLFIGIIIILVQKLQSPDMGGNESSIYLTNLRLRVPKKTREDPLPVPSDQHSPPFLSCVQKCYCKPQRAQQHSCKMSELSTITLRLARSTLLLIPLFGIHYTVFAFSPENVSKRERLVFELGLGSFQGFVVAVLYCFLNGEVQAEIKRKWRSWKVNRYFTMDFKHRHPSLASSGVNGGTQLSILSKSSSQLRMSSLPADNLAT
Description: cell-based or functional assay.

In a further experiment the target is T2, human VPAC2 receptor (human, UniProt P41587 24-438).
T2 sequence (looked up): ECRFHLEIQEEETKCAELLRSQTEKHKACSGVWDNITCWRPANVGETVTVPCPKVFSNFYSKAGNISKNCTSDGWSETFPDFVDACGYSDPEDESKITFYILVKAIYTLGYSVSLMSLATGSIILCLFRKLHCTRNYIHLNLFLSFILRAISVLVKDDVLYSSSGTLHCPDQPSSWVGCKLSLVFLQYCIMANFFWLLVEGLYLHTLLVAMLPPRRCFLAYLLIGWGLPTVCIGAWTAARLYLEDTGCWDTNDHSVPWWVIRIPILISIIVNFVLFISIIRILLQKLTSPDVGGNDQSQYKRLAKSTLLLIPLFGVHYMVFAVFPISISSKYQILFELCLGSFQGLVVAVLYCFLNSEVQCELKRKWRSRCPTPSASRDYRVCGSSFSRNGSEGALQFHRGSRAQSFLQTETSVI
Description: cell-based or functional assay.

Experiment [1] has as its target T3, rat VPAC1 receptor (rat, UniProt P30083 31-459).
T3 sequence (looked up): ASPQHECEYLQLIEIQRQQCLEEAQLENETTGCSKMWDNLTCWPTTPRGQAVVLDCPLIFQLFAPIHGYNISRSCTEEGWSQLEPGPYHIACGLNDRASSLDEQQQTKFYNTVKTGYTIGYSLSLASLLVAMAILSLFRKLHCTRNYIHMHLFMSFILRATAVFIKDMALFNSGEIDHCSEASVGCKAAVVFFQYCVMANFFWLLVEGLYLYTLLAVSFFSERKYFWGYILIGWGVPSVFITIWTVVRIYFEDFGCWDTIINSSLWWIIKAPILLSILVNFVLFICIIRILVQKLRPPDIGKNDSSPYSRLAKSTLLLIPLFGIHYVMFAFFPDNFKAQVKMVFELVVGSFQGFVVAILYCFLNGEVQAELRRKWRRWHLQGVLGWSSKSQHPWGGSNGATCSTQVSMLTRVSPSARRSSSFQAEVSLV
Description: cell-based or functional assay.

For experiment [2], the target named is T4, rat VPAC2 receptor (rat, UniProt P35000 23-437).
T4 sequence (looked up): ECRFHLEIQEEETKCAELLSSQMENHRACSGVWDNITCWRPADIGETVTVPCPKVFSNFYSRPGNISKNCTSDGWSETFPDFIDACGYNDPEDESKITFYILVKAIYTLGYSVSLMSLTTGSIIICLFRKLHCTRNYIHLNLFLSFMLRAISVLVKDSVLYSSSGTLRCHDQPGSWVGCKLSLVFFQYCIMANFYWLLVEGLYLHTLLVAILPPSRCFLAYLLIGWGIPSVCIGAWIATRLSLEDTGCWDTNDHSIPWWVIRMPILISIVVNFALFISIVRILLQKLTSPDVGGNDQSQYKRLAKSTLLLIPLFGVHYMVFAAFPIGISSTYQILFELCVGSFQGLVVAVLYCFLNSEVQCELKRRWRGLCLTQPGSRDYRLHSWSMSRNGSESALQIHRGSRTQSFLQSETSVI
Put plainly: cell-based or functional assay.

For experiment [3], the target named is T3, rat VPAC1 receptor. Description: cell-based or functional assay. The source holds these as a separate data set.
Experiment [4] has as its target T4, rat VPAC2 receptor. Description: IC50 on rat VPAC1 over IC50 on rat VPAC2. From the text: Each assay is done in duplicate and performed on two different membrane preparations.
TABLE 3 Binding data are expressed as the IC₅₀ values of tracer inhibition. A different reference compound is used as the tracer for the VPAC1 receptor and for the VPAC2 receptor. The last column represents the ratio between the IC₅₀ values on VPAC1 and VPAC2 receptor and is, thus, an index of selectivity for a receptor subtype. […] The values are given with the standard error.

For another experiment, the target named is T5, human VPAC1 receptor (human, UniProt P32241 31-457).
T5 sequence (looked up): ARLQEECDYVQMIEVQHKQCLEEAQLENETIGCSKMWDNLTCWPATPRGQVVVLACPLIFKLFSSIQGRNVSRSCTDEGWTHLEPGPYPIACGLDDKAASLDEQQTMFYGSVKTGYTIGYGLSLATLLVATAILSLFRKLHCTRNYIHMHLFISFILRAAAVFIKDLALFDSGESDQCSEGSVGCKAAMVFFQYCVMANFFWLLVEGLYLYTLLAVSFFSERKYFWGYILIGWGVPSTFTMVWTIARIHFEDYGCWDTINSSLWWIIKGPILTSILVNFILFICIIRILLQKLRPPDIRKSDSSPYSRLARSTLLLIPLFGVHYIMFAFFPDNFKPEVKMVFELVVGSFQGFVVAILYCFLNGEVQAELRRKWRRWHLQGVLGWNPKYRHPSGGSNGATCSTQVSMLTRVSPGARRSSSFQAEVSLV
Put plainly: cell-based or functional assay.

For the next experiment, the target named is T6, human PAC1 receptor (human, UniProt P41586 21-468).
T6 sequence (looked up): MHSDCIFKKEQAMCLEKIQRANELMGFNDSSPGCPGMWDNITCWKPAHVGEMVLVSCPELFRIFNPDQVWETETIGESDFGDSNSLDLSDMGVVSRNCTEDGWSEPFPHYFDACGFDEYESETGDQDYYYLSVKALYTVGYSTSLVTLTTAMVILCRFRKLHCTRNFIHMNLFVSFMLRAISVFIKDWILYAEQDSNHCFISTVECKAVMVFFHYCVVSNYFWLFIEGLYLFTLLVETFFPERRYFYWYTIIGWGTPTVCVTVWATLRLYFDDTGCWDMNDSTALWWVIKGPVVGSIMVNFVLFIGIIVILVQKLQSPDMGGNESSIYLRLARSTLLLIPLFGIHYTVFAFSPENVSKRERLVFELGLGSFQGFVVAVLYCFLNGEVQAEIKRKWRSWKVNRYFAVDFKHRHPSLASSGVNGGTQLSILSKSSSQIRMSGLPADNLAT
Put plainly: cell-based or functional assay.

Experiment [5] deals with T4, rat VPAC2 receptor. Description: cell-based or functional assay. This is another data set of the same source.
The target of experiment [6] is T7, human VPAC2 receptor (human), P41587.
T7 chain: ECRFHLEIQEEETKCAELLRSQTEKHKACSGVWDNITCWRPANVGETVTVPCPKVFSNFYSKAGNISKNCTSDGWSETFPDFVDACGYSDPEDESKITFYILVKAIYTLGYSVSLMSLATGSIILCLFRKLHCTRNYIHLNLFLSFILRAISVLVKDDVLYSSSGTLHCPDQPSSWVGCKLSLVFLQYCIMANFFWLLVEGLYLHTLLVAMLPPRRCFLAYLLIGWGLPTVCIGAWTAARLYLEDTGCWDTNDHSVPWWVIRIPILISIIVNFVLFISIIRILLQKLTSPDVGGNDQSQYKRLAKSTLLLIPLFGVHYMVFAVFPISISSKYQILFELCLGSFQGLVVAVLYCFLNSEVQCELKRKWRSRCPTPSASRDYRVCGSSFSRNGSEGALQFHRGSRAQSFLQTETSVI
Description: cell-based or functional assay.

Where no end group is shown, it is not given here. The star is where a group is joined. Hexanoyl = CCCCCC(=O)* Where only a bound is given, the exact number is not on record here.

Here are results for five molecules from patent US20080026996A1, “Selective Vpac2 Receptor Reptide Agonists” (ELI LILLY AND COMPANY, priority 2004, published 2008).

B1: P119 (peptide)
peptide: Hexanoyl-HSDAVFTDNYTRLLAKLALQKYLQSIKNKRYGGPSSGAPPPS
notes: also called VPAC2-P119
Take B1: in the experiment with rat PAC1 receptor, the “adenylate cyclase potency ratio compared to PACAP-27” value (shortened to “adenylate cyclase potency ratio”) is > 200 fold. In the experiment with human VPAC2 receptor, the “EC50 cAMP, Alpha Screen” value worked out at 0.42 nM and the “EC50 cAMP, DiscoveRx” value was 0.34 nM. Further, the cAMP max with rat VPAC1 receptor [1] came to 207. In addition, in the experiment with rat VPAC2 receptor [2], the “VPAC1/VPAC2 (EC50 ratio)” value was 32 and the cAMP max came to 133. Also, in the experiment with rat VPAC1 receptor [3], the “EC50 cAMP, DiscoveRx” value was 0.07 nM. Further, the “VPAC1/VPAC2 (ratio of IC50 values)” value with rat VPAC2 receptor [4] was found to be 47.

B2: P31 (peptide)
peptide: Hexanoyl-HSDAVFTDNYTRLRKQVAAKKYLQSIKNKRYGGPSSGAPPPS
notes: also called VPAC2-P31
In the case of B2, in the experiment with rat PAC1 receptor, the “adenylate cyclase potency ratio” value is > 200 fold. Besides, the “EC50 cAMP, Alpha Screen” value with human VPAC2 receptor is 0.13 nM. Further, the “EC50 cAMP, DiscoveRx” value with human VPAC2 receptor came to 0.11 nM; in the experiment with human VPAC1 receptor, 6 nM; in the experiment with human PAC1 receptor, 116 nM; with rat VPAC1 receptor [3], 0.44 nM. The cAMP max in the experiment with rat VPAC1 receptor [1] was 200; with rat VPAC2 receptor [2], 134. Also, the “VPAC1/VPAC2 (EC50 ratio)” value with rat VPAC2 receptor [2] amounted to 174. For the same molecule, the “VPAC1/VPAC2 (ratio of IC50 values)” value in the experiment with rat VPAC2 receptor [4] worked out at 546.

B3: P104 (peptide)
peptide: MHSDAVFTDNYTRLRKQVAAKKYLQSIKNKRYGGPSSGAPPPS
modifications: N-terminal methionine added (M-)
notes: also called VPAC2-P104
As for B3, the “adenylate cyclase potency ratio” value with rat PAC1 receptor is > 1000 fold. In addition, in the experiment with human VPAC2 receptor, the “EC50 cAMP, Alpha Screen” value amounted to 0.27 nM. Further, the cAMP max with rat VPAC1 receptor [1] stood at 195; with rat VPAC2 receptor [2], 129. The “VPAC1/VPAC2 (EC50 ratio)” value with rat VPAC2 receptor [2] turned out to be 184. Further, the “EC50 cAMP, DiscoveRx” value with rat VPAC1 receptor [3] is 6.75 nM; with rat VPAC2 receptor [5], 0.51 nM. The “VPAC1/VPAC2 (ratio of IC50 values)” value with rat VPAC2 receptor [4] is 977.

B4: P213 (peptide)
peptide: HSDAVFTDNYTRLRKQVAAKRYLQSIRNGGPSSGAPPPS
modifications: not checked
In [6], B4 came in with an EC50 cAMP, Alpha Screen of 0.24 nM.

B5: P214 (peptide)
peptide: HSDAVFTDNYTRLRKQVAARRYLQSIRNGGPSSGAPPPS
modifications: not checked
In [6], B5 displayed an EC50 cAMP, Alpha Screen of 0.16 nM.
